Results: US20120136195A1, “DRUG DELIVERY SYSTEM OF TARGET DRUG AND METHOD OF IMPLEMENTING THE SAME” (priority 2010, published 2012)

Experiment: Impact of ultrasound acoustic pressure on enzyme activity of the drug
Type: physicochemical
From the text: In the evaluation of ultrasound power and parameter adjustment, and their impacts on enzyme activity, in order to ascertain whether ultrasound could affect drug activity, thus evaluating correctly the benefit of the present invention, therefore in an experiment, various acoustic pressure are given, and evaluations are made for activity of drug on the magnetic particles after applying various numbers of pulses. […] From the result it can be confirmed that, the present invention is able to cause suspension of magnetic particles, while reducing as much as possible its impact on the drug carried by the magnetic particles.

## recombinant tissue plasminogen activator [rtPA]
Acoustic pressure of 7.1 MPa (FIG. 9)
  enzyme activity after applying ultrasound: apparent loss of enzyme activity
Lower acoustic pressure (below 7.1 MPa, FIG. 9)
  enzyme activity after applying ultrasound: will not be affected
